Data published in patent publication US20240261333A1, “NOVEL TARGETS FOR ENHANCING ANTI-TUMOR IMMUNITY” (THE BROAD INSTITUTE, INC., priority 2021, published 2024).

T1: B3GNT2 (Homo sapiens, UniProt Q9NY97)
T1 construct: The respective ORFs of candidate genes [CD274 (NM_014143), MCL1 (NM_021960), JUNB (NM_002229), and B3GNT2 (NM_006577)] were synthesized; expressed in transfected cells; host or cells: A375 melanoma cells (lentiviral ORF overexpression)
T1 sequence (Q9NY97 1-397): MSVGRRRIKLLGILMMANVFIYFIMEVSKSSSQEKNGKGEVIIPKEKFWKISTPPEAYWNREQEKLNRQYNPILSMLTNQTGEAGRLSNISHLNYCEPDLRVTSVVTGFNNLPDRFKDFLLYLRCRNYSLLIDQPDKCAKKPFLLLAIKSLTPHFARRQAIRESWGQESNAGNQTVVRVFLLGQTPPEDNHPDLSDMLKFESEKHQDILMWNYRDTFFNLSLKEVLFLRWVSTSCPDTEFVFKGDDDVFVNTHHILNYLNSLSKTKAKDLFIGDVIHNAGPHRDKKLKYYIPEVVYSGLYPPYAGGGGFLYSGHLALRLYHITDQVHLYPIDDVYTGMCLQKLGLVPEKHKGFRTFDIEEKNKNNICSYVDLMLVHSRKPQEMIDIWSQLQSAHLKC

B1: TM9SF1 (protein)
chain: PGVEGVTHYKAGDPVILYVNKVGPYHNPQETYHYYQLPVCCPEKIRHKSLSLGEVLDGDRMAESLYEIRFRENVEKRILCHMQLSSAQVEQLRQAIEELYYFEFVVDDLPIRGFVGYMEESGFLPHSHKIGLWTHLDFHLEFHGDRIIFANVSVRDVKPHSLDGLRPDEFLGLTHTYSVRWSETSVERRSDRRRGDDGGFFPRTLEIHWLSIINSMVLVFLLVGFVAVILMRVLRNDLARYNLDEETTSAGSGDDFDQGDNGWKIIHTDVFRFPPYRGLLCAVLGVGAQFLALGTGIIVMALLGMFNVHRHGAINSAAILLYALTCCISGYVSSHFYRQIGGERWVWNIILTTSLFSVPFFLTWSVVNSVHWANGSTQALPATTILLLLTVWLLVGFPLTVIGGIFGKNNASPFDAPCRTKNIAREIPPQPWYKSTVIHMTVGGFLPFRYPPFIPWLLLSGS
B2: HNRNPH1 (protein, UniProt P31943 1-449, looked up)
Heterogeneous nuclear …: MMLGTEGGEGFVVKVRGLPWSCSADEVQRFFSDCKIQNGAQGIRFIYTREGRPSGEAFVELESEDEVKLALKKDRETMGHRYVEVFKSNNVEMDWVLKHTGPNSPDTANDGFVRLRGLPFGCSKEEIVQFFSGLEIVPNGITLPVDFQGRSTGEAFVQFASQEIAEKALKKHKERIGHRYIEIFKSSRAEVRTHYDPPRKLMAMQRPGPYDRPGAGRGYNSIGRGAGFERMRRGAYGGGYGGYDDYNGYNDGYGFGSDRFGRDLNYCFSGMSDHRYGDGGSTFQSTTGHCVHMRGLPYRATENDIYNFFSPLNPVRVHIEIGPDGRVTGEADVEFATHEDAVAAMSKDKANMQHRYVELFLNSTAGASGGAYEHRYVELFLNSTAGASGGAYGSQMMGGMGLSNQSSYGGPASQQLSGGYGGGYGGQSSMSGYDQVLQENSSDFQSNIA
B3: COPA (protein)
chain: MLTKFETKSARVKGLSFHPKRPWILTSLHNGVIQLWDYRMCTLIDKFDEHDGPVRGIDFHKQQPLFVSGGDDYKIKVWNYKLRRCLFTLLGHLDYIRTTFFHHEYPWILSASDDQTIRVWNWQSRTCVCVLTGHNHYVMCAQFHPTEDLVVSASLDQTVRVWDISGLRKKNLSPGAVESDVRGITGVDLFGTTDAVVKHVLEGHDRGVNWAAFHPTMPLIVSGADDRQVKIWRMNESKAWEVDTCRGHYNNVSCAVFHPRQELILSNSEDKSIRVWDMSKRTGVQTFRRDHDRFWVLAAHPNLNLFAAGHDGGMIVFKLERERPAYAVHGNMLHYVKDRFLRQLDFNSSKDVAVMQLRSGSKFPVFNMSYNPAENAVLLCTRASNLENSTYDLYTIPKDADSQNPDAPEGKRSSGLTAVWVARNRFAVLDRMHSLLIKNLKNEITKKVQVPNCDEIFYAGTGNLLLRDADSITLFDVQQKRTLASVKISKVKYVIWSADMSHVALLAKHAIVICNRKLDALCNIHENIRVKSGAWDESGVFIYTTSNHIKYAVTTGDHGIIRTLDLPIYVTRVKGNNVYCLDRECRPRVLTIDPTEFKFKLALINRKYDEVLHMVRNAKLVGQSIIAYLQKKGYPEVALHFVKDEKTRFSLALECGNIEIALEAAKALDDKNCWEKLGEVALLQGNHQIVEMCYQRTKNFDKLSFLYLITGNLEKLRKMMKIAEIRKDMSGHYQNALYLGDVSERVRILKNCGQKSLAYLTAATHGLDEEAESLKETFDPEKETIPDIDPNAKLLQPPAPIMPLDTNWPLLTVSKGFFEGTIASKGKGGALAADIDIDTVGTEGWGEDAELQLDEDGFVEATEGLGDDALGKGQEEGGGWDVEEDLELPPELDISPGAAGGAEDGFFVPPTKGTSPTQIWCNNSQLPVDHILAGSFETAMRLLHDQVGVIQFGPYKQLFLQTYARGRTTYQALPCLPSMYGYPNRNWKDAGLKNGVPAVGLKLNDLIQRLQLCYQLTTVGKFEEAVEKFRSILLSVPLLVVDNKQEIAEAQQLITICREYIVGLSVETERKKLPKETLEQQKRICEMAAYFTHSNLQPVHMILVLRTALNLFFKLKNFKTAATFARRLLELGPKPEVAQQTRKILSACEKNPTDAYQLNYDMHNPFDICAASYRPIYRGKPVEKCPLSGACYSPEFKGQICRVTTVTEIGKDVIGLRISPLQFR
B4: RBM14 (protein)
chain: MKIFVGNVDGADTTPEELAALFAPYGTVMSCAVMKQFAFVHMRENAGALRAIEALHGHELRPGRALVVEMSRPRPLNTWKIFVGNVSAACTSQELRSLFERRGRVIECDVVKDYAFVHMEKEADAKAAIAQLNGKEVKGKRINVELSTKGQKKGPGLAVQSGDKTKKPGAGDTAFPGTGGFSATFDYQQAFGNSTGGFDGQARQPTPPFFGRDRSPLRRSPPRASYVAPLTAQPATYRAQPSVSLGAAYRAQPSASLGVGYRTQPMTAQAASYRAQPSVSLGAPYRGQLASPSSQSAAASSLGPYGGAQPSASALSSYGGQAAAASSLNSYGAQGSSLASYGNQPSSYGAQAASSYGVRAAASSYNTQGAASSLGSYGAQAASYGAQSAASSLAYGAQAASYNAQPSASYNAQSAPYAAQQAASYSSQPAAYVAQPATAAAYASQPAAYAAQATTPMAGSYGAQPVVQTQLNSYGAQASMGLSGSYGAQSAAAATGSYGAAAAYGAQPSATLAAPYRTQSSASLAASYAAQQHPQAAASYRGQPGNAYDGAGQPSAAYLSMSQGAVANANSTPPPYERTRLSPPRASYDDPYKKAVAMSKRYGSDRRLAELSDYRRLSESQLSFRRSPTKSSLDYRRLPDAHSDYARYSGSYNDYLRAAQMHSGYQRRM
B5: PUF60 (protein)
chain: MATATIALQVNGQQGGGSEPAAAAAVVAAGDKWKPPQGTDSIKMENGQSTAAKLGLPPLTPEQQEALQKAKKYAMEQSIKSVLVKQTIAHQQQQLTNLQMAAVTMGFGDPLSPLQSMAAQRQRALAIMCRVYVGSIYYELGEDTIRQAFAPFGPIKSIDMSWDSVTMKHKGFAFVEYEVPEAAQLALEQMNSVMLGGRNIKVGRPSNIGQAQPIIDQLAEEARAFNRIYVASVHQDLSDDDIKSVFEAFGKIKSCTLARDPTTGKHKGYGFIEYEKAQSSQDAVSSMNLFDLGGQYLRVGKAVTPPMPLLTPATPGGLPPAAAVAAAAATAKITAQEAVAGAAVLGTLGTPGLVSPALTLAQPLGTLPQAVMAAQAPGVITGVTPARPPIPVTIPSVGVVNPILASPPTLGLLEPKKEKEEEELFPESERPEMLSEQEHMSISGSSARHMVMQKLLRKQESTVMVLRNMVDPKDIDDDLEGEVTEECGKFGAVNRVIIYQEKQGEEEDAEIIVKIFVEFSIASETHKAIQALNGRWFAGRKVVAEVYDQERFDNSDLSA
B6: DDX17 (protein)
chain: MPTGFVAPILCVLLPSPTREAATVASATGDSASERESAAPAAAPTAEAPPPSVVTRPEPQALPSPAIRAPLPDLYPFGTMRGGGFGDRDRDRDRGGFGARGGGGLPPKKFGNPGERLRKKKWDLSELPKFEKNFYVEHPEVARLTPYEVDELRRKKEITVRGGDVCPKPVFAFHHANFPQYVMDVLMDQHFTEPTPIQCQGFPLALSGRDMVGIAQTGSGKTLAYLLPAIVHINHQPYLERGDGPICLVLAPTRELAQQVQQVADDYGKCSRLKSTCIYGGAPKGPQIRDLERGVEICIATPGRLIDFLESGKTNLRRCTYLVLDEADRMLDMGFEPQIRKIVDQIRPDRQTLMWSATWPKEVRQLAEDFLRDYTQINVGNLELSANHNILQIVDVCMESEKDHKLIQLMEEIMAEKENKTIIFVETKRRCDDLTRRMRRDGWPAMCIHGDKSQPERDWVLNEFRSGKAPILIATDVASRGLDVEDVKFVINYDYPNSSEDYVHRIGRTARSTNKGTAYTFFTPGNLKQARELIKVLEEANQAINPKLMQLVDHRGGGGGGGGRSRYRTTSSANNPNLMYQDECDRRLRGVKDGGRRDSASYRDRSETDRAGYANGSGYGSPNSAFGAQAGQYTYGQGTYGAAAYGTSSYTAQEYGAGTYGASSTTSTGRSSQSSSQQFSGIGRSGQQPQPLMSQQFAQPPGATNMIGYMGQTAYQYPPPPPPPPPSRK
B7: CPT1A (protein)
chain: AEAHQAVAFQFTVTPDGIDLRLSHEALRQIYLSGLHSWKKKFIRFKNGIITGVYPASPSSWLIVVVGVMTTMYAKIDPSLGIIAKINRTLETANCMSSQTKNVVSGVLFGTGLWVALIVTMRYSLKVLLSYHGWMFTEHGKMSRATKIWMGMVKIFSGRKPMLYSFQTSLPRLPVPAVKDTVNRYLQSVRPLMKEEDFKRMTALAQDFAVGLGPRLQWYLKLKSWWATNYVSDWWEEYIYLRGRGPLMVNSNYYAMDLLYILPTHIQAARAGNAIHAILLYRRKLDREEIKPIRLLGSTIPLCSAQWERMFNTSRIPGEETDTIQHMRDSKHIVVYHRGRYFKVWLYHDGRLLKPREMEQQMQRILDNTSEPQPGEARLAALTAGDRVPWARCRQAYFGRGKNKQSLDAVEKAAFFVTLDETEEGYRSEDPDTSMDSYAKSLLHGRCYDRWFDKSFTFVVFKNGKMGLNAEHSWADAPIVAHLWEYVMSIDSLQLGYAEDGHCKGDINPNIPYPTRLQWDIPGECQEVIETSLNTANLLANDVDFHSFPFVAFGKGIIKKCRTSPDAFVQLALQLAHYKDMGKFCLTYEASMTRLFREGRTETVRSCTTESCDFVRAMVDPAQTVEQRLKLFKLASEKHQHMYRLAMTGSGIDRHLFCLYVVSKYLAVESPFLKEVLSEPWRLSTSQTPQQQVELFDLENNPEYVSSGGGFGPVADDGYGVSYILVGENLINFHISSKFSCPETGIISQGPSSDT

Target: T1, B3GNT2
Test: Co-IP of FLAG-tagged B3GNT2 followed by mass spectrometry
Assay type: cell-based
Design: C-term IgG / C-term flag: unit not given here
Settings: Co-IP followed by mass spectrometry of B3GNT2; C-term tag, FLAG pull-down
Summary of the method: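 Co-purifying proteins were identified by fractionated nano-LC–MS/MS on an Orbitrap Elite, run data-dependent. Beforehand, lysates in 1% Triton X-100/HEPES buffer were incubated overnight at 4° C with anti-FLAG or […] and pulled down on Protein A/G magnetic beads for 4 h. Duplicate biological replicates.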

C-term flag	Molecule
4	B1
15	B2
2	B3
2	B4
6	B5
30	B6
2	B7

Same assay, conditions: Co-IP followed by mass spectrometry of B3GNT2; C-term tag, IgG pull-down

C-term IgG	Molecule
0	B1
11	B2
0	B3
0	B4
5	B5
22	B6
0	B7

Same assay, conditions: Co-IP followed by mass spectrometry of B3GNT2; N-term tag, FLAG pull-down

N-term FLAG	Molecule
0	B1
11	B2
2	B3
3	B4
6	B5
23	B6
2	B7

Same assay, conditions: Co-IP followed by mass spectrometry of B3GNT2; N-term tag, IgG pull-down

N-term IgG	Molecule
0	B1
11	B2
0	B3
4	B4
5	B5
23	B6
0	B7
